Laboratory results reported in article PMC11926218, “Structure and unusual binding mechanism of the hyaluronan receptor LYVE-1 mediating leucocyte entry to lymphatics” (Nature Communications, 2025).

Molecular target: the molecule itself
Assay: SEC; Superdex Increase 200 10/300GL, protein in PBS after His Trap purification; step run to remove aggregates

B1: wild-type hLYVE-1 Δ238 His10 (soluble full ectodomain of human LYVE-1) (domain or fragment, UniProt Q9Y5Y7 20-238, looked up)
chain: LVQGSLRAEELSIQVSCRIMGITLVSKKANQQLNFTEAKEACRLLGLSLAGKDQVETALKASFETCSYGWVGDGFVVISRISPNPKCGKNGVGVLIWKVPVSRQFAAYCYNSSDTWTNSCIPEIITTKDPIFNTQTATQTTEFIVSDSTYSVASPYSTIPAPTTTPPAPASTSIPRRKKLICVTEVFMETSTMSTETEPFVENKAAFKNEAAGFGGVPT
notes: signal peptide in the construct; Obtained as a mixture of monomer and disulfide-linked homodimer; The protein is glycosylated, made in CHO cells; also called hLYVE-1 full wild-type ectodomain; hLYVE-1 Δ238 with a His10 single tag; source: CHO-K1, transfected (pEE14), culture supernatant, purified (His Trap, size exclusion chromatography); not shown: His10, C-terminal, kept
binding result: binds
